Literature values in publication PMC8558179, “The C-terminal peptide of CCL21 drastically augments CCL21 activity through the dendritic cell lymph node homing receptor CCR7 by interaction with the receptor N-terminus” (Cellular and Molecular Life Sciences: CMLS, 2021).

Test system: Collagen I
Conditions: cited from earlier work
Excerpt: In the current study we have used Collagen I in the 3D chemotaxis assays. Collagen I has low affinity for CCL21 [31]. Matrigel on the other hand binds CCL21 well. As CCL21 is immobilized in vivo [20], to evaluate the full effect of C21TP on dendritic cell migration, experiments using Matrigel would need to be conducted. Such assay could reveal if C21TP affect the interaction between CCR7 and immobilized CCL21 where the basic tail is participating in surface tethering and potentially unable to engage in steric hindrance of CCR7. Again, since boosting of in vitro signaling occurred in both p ...

B1: CCL21: full-length chemokine (residues 1–111), CCR7 ligand, from R&D Systems (protein, UniProt O00585 24-134, looked up)
C-C motif chemokine 21: SDGGAQDCCLKYSQRKIPAKVVRSYRKQEPSLGCSIPAILFLPRKRSQAELCADPKELWVQQLMQHLDKTPSPQKPAQGCRKDRGASKTGKKGKGSKGCKRTERSQTPKGP
affinity of Collagen I for CCL21: low affinity
